Usually Kd stands for the concentration at which binding is half-saturated. A lower Kd goes with a tighter complex.

No end group written: not given here. *: point of attachment. Dansyl = CN(C)c1cccc2c(S(=O)(=O)*)cccc12

The test has as its target FTase (protein farnesyltransferase) (UniProt P49354).
Consider Dansyl-TKCSLG [dansyl-TKCSLG], for which the Kd is 3.4 nM.

In turn, Dansyl-TKCCIF (cysteine pairing not given here) [dansyl-TKCCIF] showed a Kd of 270 nM.

Molecule Dansyl-TKCVVT [dansyl-TKCVVT] showed a Kd of 7 nM.

Dansyl-TKCVLA [dansyl-TKCVLA] came in with a Kd of 4.6 nM.

In turn, Dansyl-TKCNLQ [dansyl-TKCNLQ] had a Kd of 8 nM.

In turn, Dansyl-TKCLLM [dansyl-TKCLLM] came in with a Kd of 4.7 nM.

For Dansyl-TKCTLA [dansyl-TKCTLA], binding was characterised by a dissociation constant (Kd) of 4.4 nM.

As to Dansyl-TKCSFM [dansyl-TKCSFM], the Kd was determined as 10 nM.

Molecule Dansyl-TKCTKF [dansyl-TKCTKF] returned a Kd of 6 nM.

Dansyl-TKCAVQ [dansyl-TKCAVQ] showed a Kd of 13 nM.

In turn, Dansyl-TKCLTS [dansyl-TKCLTS] showed a Kd of 5 nM.

In turn, Dansyl-TKCKIF [dansyl-TKCKIF] gave a Kd of 2.5 nM.

Dansyl-TKCCIL (cysteine pairing not given here) [dansyl-TKCCIL]: the affinity, expressed as Kd, was 300 nM.

Dansyl-TKCTLM [dansyl-TKCTLM] gave a Kd of 5.2 nM.

On to Dansyl-TKCSIS [dansyl-TKCSIS], for which the equilibrium dissociation constant (Kd) turned out to be 3.4 nM.

For Dansyl-TKCVLH [dansyl-TKCVLH], binding was put at a Kd of 14 nM.

With Dansyl-TKCLIT [dansyl-TKCLIT], binding was put at a Kd of 4.1 nM.

Take Dansyl-TKCSVS [dansyl-TKCSVS]: the Kd stood at 2.1 nM.

For the molecule Dansyl-TKCTLQ [dansyl-TKCTLQ], the dissociation constant Kd was 7 nM.

Dansyl-TKCYPD [dansyl-TKCYPD] displayed a dissociation constant Kd of 3.3 nM.

Consider Dansyl-TKCIVA [dansyl-TKCIVA], for which binding was characterised by a dissociation constant (Kd) of 5 nM.

Regarding Dansyl-TKCGIM [dansyl-TKCGIM], binding was characterised by a dissociation constant (Kd) of 3.6 nM.

With Dansyl-TKCITQ [dansyl-TKCITQ], the Kd stood at 3.6 nM.

Molecule Dansyl-TKCRIS [dansyl-TKCRIS] registered a Kd of 12 nM.

As for Dansyl-TKCSLM [dansyl-TKCSLM], binding was characterised by a dissociation constant (Kd) of 8 nM.

Dansyl-TKCTII [dansyl-TKCTII] came in with a Kd of 4.2 nM.

Dansyl-TKCLVM [dansyl-TKCLVM]: the Kd came out at 6 nM.

Molecule Dansyl-TKCTMS [dansyl-TKCTMS] registered a Kd of 6 nM.

Molecule Dansyl-TKCYVM [dansyl-TKCYVM] returned a Kd of 12 nM.

Dansyl-TKCSIM [dansyl-TKCSIM] displayed a Kd of 6 nM.

Dansyl-TKCKIS [dansyl-TKCKIS] showed a Kd of 4 nM.

For Dansyl-TKCNLT [dansyl-TKCNLT], the Kd worked out at 3.7 nM.

The molecule Dansyl-TKCFLS [dansyl-TKCFLS] registered a Kd of 19 nM.

Dansyl-TKCNIM [dansyl-TKCNIM] came in with a Kd of 5 nM.

In turn, Dansyl-TKCSLC (cysteine pairing not given here) [dansyl-TKCSLC] registered a Kd of 5 nM.

For the origin of these results see patent US20170240926 (published 2017).
